B1: Suppressor protein STP22 of temperature-sensitive alpha-factor receptor and arginine permease (Saccharomyces cerevisiae), P25604 (parent)
chain: MSANGKISVPEAVVNWLFKVIQPIYNDGRTTFHDSLALLDNFHSLRPRTRVFTHSDGTPQLLLSIYGTISTGEDGSSPHSIPVIMWVPSMYPVKPPFISINLENFDMNTISSSLPIQEYIDSNGWIALPILHCWDPAAMNLIMVVQELMSLLHEPPQDQAPSLPPKPNTQLQQEQNTPPLPPKPKSPHLKPPLPPPPPPQPASNALDLMDMDNTDISPTNHHEMLQNLQTVVNELYREDVDYVADKILTRQTVMQESIARFHEIIAIDKNHLRAVEQAIEQTMHSLNAQIDVLTANRAKVQQFSSTSHVDDEDVNSIAVAKTDGLNQLYNLVAQDYALTDTIECLSRMLHRGTIPLDTFVKQGRELARQQFLVRWHIQRITSPLS
partner: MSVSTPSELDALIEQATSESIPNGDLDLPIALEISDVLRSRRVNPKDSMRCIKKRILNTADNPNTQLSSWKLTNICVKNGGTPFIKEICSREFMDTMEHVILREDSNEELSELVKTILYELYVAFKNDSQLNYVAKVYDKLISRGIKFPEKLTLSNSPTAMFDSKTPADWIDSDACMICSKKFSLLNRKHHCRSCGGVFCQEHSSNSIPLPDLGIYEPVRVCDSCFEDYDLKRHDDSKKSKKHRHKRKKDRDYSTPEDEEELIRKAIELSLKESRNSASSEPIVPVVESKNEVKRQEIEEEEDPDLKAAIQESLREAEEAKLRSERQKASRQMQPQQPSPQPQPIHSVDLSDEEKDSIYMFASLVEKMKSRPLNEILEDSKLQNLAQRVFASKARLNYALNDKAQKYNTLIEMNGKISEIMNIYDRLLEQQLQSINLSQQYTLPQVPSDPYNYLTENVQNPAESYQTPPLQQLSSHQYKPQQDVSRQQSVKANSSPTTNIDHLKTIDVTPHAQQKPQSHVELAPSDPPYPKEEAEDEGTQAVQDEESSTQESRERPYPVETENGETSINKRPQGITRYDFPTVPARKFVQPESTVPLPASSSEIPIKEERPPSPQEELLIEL

Variants of: B1
Conditions: with vps27_yeast VPS27, P40343

**Q.** For W16A, which “effect of a mutation on the interaction” value is on record?
**A.** disrupting interaction

Variants of: B1
Conditions: with vps27_yeast VPS27, P40343
Remark: another data set of the same source

**Q.** How did the “effect of a mutation on the interaction” value turn out when T49V was run?
**A.** decreasing interaction

Variants of: B1
Conditions: with vps27_yeast VPS27, P40343
Remark: another data set of the same source

**Q.** With L61N as the variant, how does the “effect of a mutation on the interaction” value read?
**A.** decreasing interaction
